The test has as its target T1, PHF1 Tudor-PHD1 (human, UniProt O43189 14-140).
T1 sequence: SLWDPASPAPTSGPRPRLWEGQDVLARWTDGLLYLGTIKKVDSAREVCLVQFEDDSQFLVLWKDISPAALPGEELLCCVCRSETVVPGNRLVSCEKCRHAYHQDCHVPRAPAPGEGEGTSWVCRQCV
The experiment in a line: NMR titration.

No end group written: not given here.

ATGGVK(Me3)KPHR [H3K36me3 peptide]: the binding result was “binds”.

For the origin of these results see paper PMC4007151 (Nature communications, 2013).
